Target: recombinant human DLL3 (ELISA coat) (human) (UniProt Q9NYJ7)
Assay: ELISA, plate coated with recombinant human DLL3 0.5 µg/ml; commercial reagent mAb

recombinant human DLL3 (ELISA coat) (human), sequence (Q9NYJ7 27-492 limits assumed): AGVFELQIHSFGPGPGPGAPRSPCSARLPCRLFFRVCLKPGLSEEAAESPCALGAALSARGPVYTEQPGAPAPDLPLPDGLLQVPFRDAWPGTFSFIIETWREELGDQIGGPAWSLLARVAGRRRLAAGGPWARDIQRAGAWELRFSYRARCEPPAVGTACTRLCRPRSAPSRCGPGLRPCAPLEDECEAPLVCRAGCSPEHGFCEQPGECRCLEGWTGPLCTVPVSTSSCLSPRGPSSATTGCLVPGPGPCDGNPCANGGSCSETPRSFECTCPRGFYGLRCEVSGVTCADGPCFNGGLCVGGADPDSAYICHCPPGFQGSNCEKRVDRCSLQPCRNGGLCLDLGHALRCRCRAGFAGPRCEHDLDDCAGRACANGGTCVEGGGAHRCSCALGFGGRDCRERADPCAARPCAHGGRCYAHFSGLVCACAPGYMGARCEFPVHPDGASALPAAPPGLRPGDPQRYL

- EC50: 0.1 nM
Substance: positive control antibody for DLL3 (R&D Systems, Minneapolis, Minn., Cat #MAB4315)
